# Data as given in PMC13041742, “Nonlinear stiffness of NompC gating spring and its implication in mechanotransduction” (Science Advances, 2026).
# Molecular target: the molecule itself
# Test: negative-stain EM with 2D class averaging; purified NompC-Δ12; raw micrographs and 2D class averages
protein,measurement,value
"NompC-Δ12 (complex, Drosophila, UniProt E0A9E1 1-1732, looked up, NompC (no mechanoreceptor potential C), Drosophila, NP_001245891.1, lacking the N-terminal 12 ankyrin repeats (amino acids 126 to 533); Full-length NompC with an internal deletion of residues 126-533; also called truncated NompC-Δ12; NompC complex with the N-terminal 12 ARs removed; not shown: SpyTag, N-terminal, kept; enhanced green fluorescent protein (after a 3C cleavage site), C-terminal, …) MSQPRGGRGGGRGGGVGRKTPSSLTGPPDESATPSERATPASKADSDPKDDSSSNGDKKDMDLFPAPKPPSAGASIRDTANKVLGLAMKSEWTPIEAELKKLEKYVANVGEDGNHIPLAGVHDMNTGETPLHMACRACHPDIVRHLIETVKEKHGPDKATTYINSVNEDGATALHYTCQITKEEVKIPESDKQIVRMLLENGADVTLQTKTALETAFHYCAVAGNNDVLMEMISHMNPTDIQKAMNRQSSVGWTPLLIACHRGHMELVNNLLANHARVDVFDTEGRSALHLAAERGYLHVCDALLTNKAFINSKSRVGRTALHLAAMNGFTHLVKFLIKDHNAVIDILTLRKQTPLHLAAASGQMEVCQLLLELGANIDATDDLGQKPIHVAAQNNYSEVAKLFLQQHPSLVNATSKDGNTCAHIAAMQGSVKVIEELMKFDRSGVISARNKLTDATPLQLAAEGGHADVVKALVRAGASCTEENKAGFTAVHLAAQNGHGQVLDVLKSTNSLRINSKKLGLTPLHVAAYYGQADTVRELLTSVPATVKSETPTGQSLFGDLGTESGMTPLHLAAFSGNENVVRLLLNSAGVQVDAATIENGYNPLHLACFGGHMSVVGLLLSRSAELLQSQDRNGRTGLHIAAMHGHIQMVEILLGQGAEINATDRNGWTPLHCAAKAGHLEVVKLLCEAGASPKSETNYGCAAIWFAASEGHNEVLRYLMNKEHDTYGLMEDKRFVYNLMVVSKNHNNKPIQEFVLVSPAPVDTAAKLSNIYIVLSTKEKERAKDLVAAGKQCEAMATELLALAAGSDSAGKILQATDKRNVEFLDVLIENEQKEVIAHTVVQRYLQELWHGSLTWASWKILLLLVAFIVCPPVWIGFTFPMGHKFNKVPIIKFMSYLTSHIYLMIHLSIVGITPIYPVLRLSLVPYWYEVGLLIWLSGLLLFELTNPSDKSGLGSIKVLVLLLGMAGVGVHVSAFLFVSKEYWPTLVYCRNQCFALAFLLACVQILDFLSFHHLFGPWAIIIGDLLKDLARFLAVLAIFVFGFSMHIVALNQSFANFSPEDLRSFEKKNRNRGYFSDVRMHPINSFELLFFAVFGQTTTEQTQVDKIKNVATPTQPYWVEYLFKIVFGIYMLVSVVVLINLLIAMMSDTYQRIQAQSDIEWKFGLSKLIRNMHRTTTAPSPLNLVTTWFMWIVEKVKARMKKKKRPSLVQMMGIRQASPRTKAGAKWLSKIKKDSVALSQVHLSPLGSQASFSQANQNRIENVADWEAIAKKYRALVGDEEGGSLKDSDAESGSQEGSGGQQPPAQVGRRAIKATLADTTK",stoichiometry N,4
